Ends that are not written are not given here. * marks the point of attachment. Biotin = O=C1N[C@H]2[C@H](CS[C@H]2CCCCC(=O)*)N1
Columns and labels:
[1] = tested on: normal human keratinocytes; test: Cell viability test (XTT); conditions: 100 to 1 μg/ml, medium renewed every two days (repeated twice)
[2] = molecular target: T1, syndecan-1 (Homo sapiens, UniProt P18827); test: Affinity chromatography (pull-down) with peptide-coated beads and syndecan-1 immunodetection; format: binding; conditions: lysate of normal human keratinocytes, 2 mg; immunoblotting with antibody H174
T1 construct: endogenous in cells; host or cells: primary normal human keratinocytes from foreskin biopsies
T1 sequence (P18827 23-310): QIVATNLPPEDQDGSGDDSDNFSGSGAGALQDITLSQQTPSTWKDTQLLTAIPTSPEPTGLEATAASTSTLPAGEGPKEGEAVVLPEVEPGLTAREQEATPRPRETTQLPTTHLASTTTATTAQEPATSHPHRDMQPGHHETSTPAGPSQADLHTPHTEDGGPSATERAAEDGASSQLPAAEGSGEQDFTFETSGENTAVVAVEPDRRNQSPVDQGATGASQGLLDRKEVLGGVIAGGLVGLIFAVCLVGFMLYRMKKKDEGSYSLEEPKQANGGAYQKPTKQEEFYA
Description: (A) A lysate of normal human keratinocytes was prepared as described in the Materials and Methods section and 2 mg of the lysate were incubated with neutravidin beads not coated or coated with the biotinylated peptides KKLRIKSKEK (SEQ ID NO: 1), PSGKPKSLP (SEQ ID NO: 19) and TSVTPKQSL (SEQ ID NO: 20). After washing, the material bound to the beads was digested with a mixture of heparitinase I and chondroitinase ABC to release the protein part of the syndecan-1 from the glycosaminoglycans. The samples were then analysed by SDS PAGE electrophoresis in an 8% acrylamide gel under non-reducing conditions and by immunoblotting with polyclonal anti-syndecan antibody H174. (B) A lysate of normal human keratinocytes was prepared and 2 mg of the lysate were incubated with neutravidin beads not coated or coated with the biotinylated peptide KKLRIKSKEK (SEQ ID NO: 1), or with sepharose beads coated with the whole LG4/5 fragment. After washing, the material bound to the beads was digested with a mixture of heparitinase I and chondroitinase ABC to release the protein part of the syndecan-1 from the glycosaminoglycans. The samples were then analysed by SDS PAGE electrophoresis in an 8% acrylamide gel under non-reducing conditions and by immunoblotting with polyclonal anti-syndecan antibody H174. (A, B) The position of molecular weight markers is shown on the left.
(§1) A series of point mutations was introduced into the peptide KKLRIKSKEK (SEQ ID NO: 1) by successively replacing each amino acid by an alanine (A). […] The samples were then analysed by SDS PAGE electrophoresis in an 8% acrylamide gel under non-reducing conditions and by immunoblotting with polyclonal anti-syndecan antibody H174. […]
as §1, with “point or multiple” for “point”, “by” for “by successively”, “one or more lysines (K)” for “each amino acid”, “a glutamine (Q).” for “an alanine (A).”

[3] = tested on: HT1080 cells; test: Cell adhesion test (crystal violet colorimetric) on immobilised peptide, HT1080 cells; format: cell-based, Human; conditions: microscopy, FIG. 6B
Description: (A, B) Dose-dependent adhesion of normal human keratinocytes and cells of the HT1080 strain to the peptide KKLRIKSKEK (SEQ ID NO: 1) and to the LG4/5 protein. The peptide (A) and the protein LG4/5 (B) were immobilised on 96-well plates at the concentrations indicated on the abscissa. 6·10^4 cells were deposited in each well and the plates were incubated at 37° C. for 1 hour. After washing, the adherent cells were fixed and cell adhesion was measured as described in the methodology section. (C) Observation of normal human keratinocytes and HT1080 cells adhering to KKLRIKSKEK peptide (SEQ ID NO: 1) and to the LG4/5 protein. The observation was made with a Zeiss Axiovert 40 microscope equipped with a PlasDic interference unit. 50 μm bar.
(A) A decreasing range of peptides KKLRIKSKEK (SEQ ID NO: 1) and NSFMALYLSKGR (SEQ ID NO: 21) was immobilised in 96-well Microlon plates and the amount actually adsorbed was determined by protein assay with reference to a corresponding range of peptides made extemporaneously. The quantities of peptide tested are indicated on the abscissa of the graph. 6·10^4 cells were deposited in each well and the plates were incubated at 37° C. for 1 hour. After washing, the adherent cells were fixed and cell adhesion was measured as described in the methodology section. […]

[4] = molecular target: T2, syndecan-1 from lysates of normal human keratinocytes or normal human fibroblasts (human, UniProt P18827 23-310, limits assumed, carries heparan sulphate and chondroitin sulphate chains during binding; stripped with heparitinase I and chondroitinase ABC before the immunoblot); test: pull-down from normal human keratinocyte lysate, immunoblot with H174
T2 construct: Endogenous proteoglycan of cell lysates; also called syndecan-1 receptor
T2 sequence (looked up): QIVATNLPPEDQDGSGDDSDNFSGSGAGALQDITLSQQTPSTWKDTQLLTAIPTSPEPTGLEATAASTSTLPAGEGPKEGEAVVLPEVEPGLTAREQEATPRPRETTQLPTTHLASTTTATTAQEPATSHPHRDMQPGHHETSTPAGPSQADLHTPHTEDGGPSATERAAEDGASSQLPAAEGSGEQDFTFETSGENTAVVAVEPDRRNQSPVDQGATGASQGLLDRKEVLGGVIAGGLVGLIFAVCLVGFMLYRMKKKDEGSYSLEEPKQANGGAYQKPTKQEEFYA
Description: To identify the nature of the cell receptor binding to the peptide […] (SEQ ID NO: 1), affinity chromatography or 'pull-down' assays were performed by incubating beads coated with peptides with cell lysates. Lysates of primary keratinocytes or fibroblasts were made using a lysis buffer of 1% triton X-100 in PBS, pH 7.5, containing N-ethylmaleimide and phenylmethylsulphonylfluoride 50 mM. The wild type peptide […] (SEQ ID NO: 1) and the mutated peptides were bound to biotin at their amino-terminal ends and 100 µg of each biotinylated peptide were attached to agarose-neutravidin beads (Perbio Science, Bezons, France) by incubation for 16 hours at +4° C. The beads were then incubated with 2 mg of cell lysate for 2 hours at +4° C. After washing 3 times with the lysis buffer, the beads were transferred into a digestion buffer (20 mM sodium acetate, 5 mM CaCl2, pH 7.0) containing 8 mU/ml heparitinase I and 50 mU/ml of chondroitinase ABC (Seikagaku America, Coger, Paris, France) for 2 hours at 25° C. This treatment strips the protein part of syndecan-1 of glycosaminoglycans, making it easier to analyse by immunoblotting. The samples were then analysed by SDS PAGE electrophoresis in an 8% acrylamide gel under non-reducing conditions and by immunoblotting with polyclonal anti-syndecan antibody H174 (Santa Cruz Biotechnology, Le Perray en Yvelines, France).

With KKLRIKSKEK [KKLRIKSKEK] the “Cytotoxic effect on epidermal keratinocytes (percentage of viable cells vs controls)” value [1] was “neither peptide KKLRIKSKEK (SEQ ID NO: 1) nor protein LG4/5 has any long-term cytotoxic effect”.

“KKLRLRSKER [M2, from the murine laminin alpha3 chain]” was tested, and the “Binding of syndecan-1 to the biotinylated peptide on beads” value (“Binding … on beads” for short) [2] was “proved capable of binding syndecan-1”.

In the case of NSFMALYLSKGR, the “Morphology of HT1080 cells adhering to the peptide” value [3] is reported as “no cytoplasmic prolongations were noted”.

For PSGKPKSLP, the “Binding … on beads” value [2] was “did not retain the syndecan-1”.

With TSVTPKQSL the “Binding … on beads” value [2] was “did not retain the syndecan-1”.

Biotin-KKLAIKSKEK [mutated peptide A4 (alanine in place of amino acid 4 of …)]: no binding [4].

TSVTPKQSL (also: biotinylated) [biotinylated peptide TSVTPKQSL (SEQ ID NO: 20)]: no binding [4].

PSGKPKSLP (also: biotinylated) [biotinylated peptide PSGKPKSLP (SEQ ID NO: 19)]: no binding [4].

Biotin-AKLRIKSKEK [mutated peptide A1 (alanine in place of amino acid 1 of …)]: no binding [4].

Biotin-KKLRIKAKEK [mutated peptide A7 (alanine in place of amino acid 7 of …)]: no binding [4].

Source: patent US9260507B2, “Peptide promoting cell adhesion and migration” (Symatese, priority 2009, dated 2016)
